Results: patent US20040072268A1 (published 2004)
One block for each binder: values may come before it.

What was measured:
truncated BRCA1 (1-509) = molecular target: T1, truncated BRCA1 (1-509) (Homo sapiens (Human), UniProt P38398 1-509); test: affinity purification of the truncated BRCA1 complex from a stable 293-derived cell line (co-purification; may be indirect)
T1 construct: Stably expressed in a 293-derived cell line; keeps the nuclear localization signal and the Ring domain; also called BRCA1 truncation

[1] = molecular target: T2, Jab1/CSN5 subunit of signalosome, recombinant (UniProt Q92905 1-334, limits assumed); test: protein-protein interaction assay with GST-BRCA1 fragments
T2 construct: Produced in recombinant form as a control JAMM domain protein; the construct is not described
Protocol: (§1) Recombinant BRCA1 and BARD1 was purified as described (Chen, et al. (2002) J. Biol. Chem. 277:22085-22092). […] Gluthatione-sepharose beads (Pharmacia, Peapack, N.J.), previously equilibrated in binding buffer, were added to the samples and inverted for an additionnal 2 hours at 4° C. Beads were collected by centrifugation at 2000×g, 30 seconds, washed several times in binding buffer containing 500 mM KCl and 0.1% NP40 and resuspended in 2× SDS loading buffer. Proteins were resolved by SDS-PAGE and western blot analysis was performed using anti-FLAG® antibodies (SIGMA, St. Louis, Mo.).

[2] = molecular target: T3, (His)6-FLAG®-BRCC36 protein (Homo sapiens, UniProt P46736 1-316); test: GST pull-down: 5 µg (His)6-FLAG-BRCC36 with GST-BRCA1 fragment, anti-FLAG western blot
T3 construct: Produced in bacteria and purified; also called recombinant BRCC36; C6.1A; not shown: (His)6 and FLAG tags
Protocol: as §1

T2 sequence (Q92905 whole entry, the tested form may be a part): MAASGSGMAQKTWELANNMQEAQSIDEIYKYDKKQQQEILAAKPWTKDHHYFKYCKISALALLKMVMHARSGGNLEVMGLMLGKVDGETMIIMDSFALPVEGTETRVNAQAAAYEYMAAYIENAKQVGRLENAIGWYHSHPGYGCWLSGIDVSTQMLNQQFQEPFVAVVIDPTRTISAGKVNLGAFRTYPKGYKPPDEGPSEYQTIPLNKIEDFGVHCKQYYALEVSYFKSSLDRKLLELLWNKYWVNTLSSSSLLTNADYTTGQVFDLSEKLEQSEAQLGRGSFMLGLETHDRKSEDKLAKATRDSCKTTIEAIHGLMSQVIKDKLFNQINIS
T3 sequence (P46736 whole entry, the tested form may be a part): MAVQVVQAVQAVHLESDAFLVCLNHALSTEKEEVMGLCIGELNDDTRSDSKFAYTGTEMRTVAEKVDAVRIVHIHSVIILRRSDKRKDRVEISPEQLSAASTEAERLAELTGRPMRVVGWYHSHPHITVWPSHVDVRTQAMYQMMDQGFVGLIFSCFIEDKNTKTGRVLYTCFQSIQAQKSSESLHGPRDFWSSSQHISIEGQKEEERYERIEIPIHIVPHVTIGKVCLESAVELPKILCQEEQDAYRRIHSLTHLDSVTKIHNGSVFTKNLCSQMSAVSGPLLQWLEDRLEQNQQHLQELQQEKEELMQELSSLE

- binding result [1]: no binding
B4: GST-BRCA1 fragment F1 (BRCA1 residues 1-324) (other)
chain: MDLSALRVEEVQNVINAMQKILECPICLELIKEPVSTKCDHIFCKFCMLKLLNQKKGPSQCPLCKNDITKRSLQESTRFSQLVEELLKIICAFQLDTGLEYANSYNFAKKENNSPEHLKDEVSIIQSMGYRNRAKRLLQSEPENPSLQETSLSVQLSNLGTVRTLRTKQRIQPQKTSVYIELGSDSSEDTVNKATYCSVGDQELLQITPQGTRDEISLDSAKKAACEFSETDVTNTEHHQPSNNDLNTTEKRAAERHPEKYQGSSVSNLHVEPCGTNTHASSLQHENSSLLLTKDRMNVEKAEFCNKSKQPGLARSQHNRWAGS
notes: Produced in bacteria; also called fragment 1; not shown: glutathione S-transferase (GST) fusion tag

- binding result [2]: no binding
- binding result [1]: no binding
B5: GST-BRCA1 fragment F2 (BRCA1 residues 260-553) (other)
chain: KYQGSSVSNLHVEPCGTNTHASSLQHENSSLLLTKDRMNVEKAEFCNKSKQPGLARSQHNRWAGSKETCNDRRTPSTEKKVDLNADPLCERKEWNKQKLPCSENPRDTEDVPWITLNSSIQKVNEWFSRSDELLGSDDSHDGESESNAKVADVLDVLNEVDEYSGSSEKIDLLASDPHEALICKSERVHSKSVESNIEDKIFGKTYRKKASLPNLSHVTENLIIGAFVTEPQIIQERPLTNKLKRKRRPTSGLHPEDFIKKADLAVQKTPEMINQGTNQTEQNGQVMNITNSGH
notes: Produced in bacteria; also called fragment 2; not shown: glutathione S-transferase (GST) fusion tag

- binding result [2]: no binding
- binding result [1]: no binding
B6: GST-BRCA1 fragment F5 (BRCA1 residues 1005-1313) (other)
chain: EHSMSPEREMGNENIPSTVSTISRNNIRENVFKEASSSNINEVGSSTNEVGSSINEIGSSDENIQAELGRNRGPKLNAMLRLGVLQPEVYKQSLPGSNCKHPEIKKQEYEEVVQTVNTDFSPYLISDNLEQPMGSSHASQVCSETPDDLLDDGEIKEDTSFAENDIKESSAVFSKSVQKGELSRSPSPFTHTHLAQGYRRGAKKLESSEENLSSEDEELPCFQHLLFGKVNNIPSQSTRHSTVATECLSKNTEENLLSLKNSLNDCSNQVILAKASQEHHLSEETKCSASLFSSQCSELEDLTANTNTQ
notes: Produced in bacteria; also called fragment 5; not shown: glutathione S-transferase (GST) fusion tag

Second part, the binder before the results:

B1: BRE (other)
chain: MSPEVALNRISPMLSPFISSVVRNGKVGLDATNCLRITDLKSGCTSLTPGPNCDRFKLHIPYAGETLKWDIIFNAQYPELPPDFIFGEDAEFLPDPSALQNLASWNPSNPECLLLVVKELVQQYHQFQCSRLRESSRLMFEYQTLLEEPQYGENMEIYAGKKNNWTGEFSARFLLKLPVDFSNIPTYLLKDVNEDPGEDVALLSVSFEDTEATQVYPKLYLSPRIEHALGGSSALHIPAFPGGGCLIDYVPQVCHLLTNKVQYVIQGYHKRREYIAAFLSHFGTGVVEYDAEGFTKLTLLLMWKDFCFLVHIDLPLFFPRDQPTLTFQSVYHFTNSGQLYSQAQKNYPYSPRWDGNEMAKRAKGCQGSRDACSPWEQVLAFAVAKTGCKLLQPQRNWPSSRGPPWRASEGERTAQ
notes: also called BRCC45; BRCC45/BRE
- binding result (truncated BRCA1 (1-509)): no binding

B2: GST-BRCA1 fragment F3 (BRCA1 residues 502-802) (other)
chain: LKRKRRPTSGLHPEDFIKKADLAVQKTPEMINQGTNQTEQNGQVMNITNSGHENKTKGDSIQNEKNPNPIESLEKESAFKTKAEPISSSISNMELELNIHNSKAPKKNRLRRKSSTRHIHALELVVSRNLSPPNCTELQIDSCSSSEEIKKKKYNQMPVRHSRNLQLMEGKEPATGAKKSNKPNEQTSKRHDSDTFPELKLTNAPGSFTKCSNTSELKEFVNPSLPREEKEEKLETVKVSNNAEDPKDLMLSGERVLQTERSVESSSISLVPGTDYGTQESISLLEVSTLGKAKTEPNKCV
notes: Produced in bacteria; also called fragment 3; not shown: glutathione S-transferase (GST) fusion tag
- binding result [1]: no binding

B3: GST-BRCA1 fragment F4 (BRCA1 residues 758-1064) (other)
chain: LQTERSVESSSISLVPGTDYGTQESISLLEVSTLGKAKTEPNKCVSQCAAFENPKGLIHGCSKDNRNDTEGFKYPLGHEVNHSRETSIEMEESELDAQYLQNTFKVSKRQSFAPFSNPGNAEEECATFSAHSGSLKKQSPKVTFECEQKEENQGKNESNIKPVQTVNITAGFPVVGQKDKPVDNAKCSIKGGSRFCLSSQFRGNETGLITPNKHGLLQNPYRIPPLFPIKSFVKTKCKKNLLEENFEEHSMSPEREMGNENIPSTVSTISRNNIRENVFKEASSSNINEVGSSTNEVGSSINEIGSS
notes: Produced in bacteria; also called fragment 4; not shown: glutathione S-transferase (GST) fusion tag
- binding result [1]: no binding
